T1: human GIP receptor (human) (UniProt P48546)
T1 sequence (looked up): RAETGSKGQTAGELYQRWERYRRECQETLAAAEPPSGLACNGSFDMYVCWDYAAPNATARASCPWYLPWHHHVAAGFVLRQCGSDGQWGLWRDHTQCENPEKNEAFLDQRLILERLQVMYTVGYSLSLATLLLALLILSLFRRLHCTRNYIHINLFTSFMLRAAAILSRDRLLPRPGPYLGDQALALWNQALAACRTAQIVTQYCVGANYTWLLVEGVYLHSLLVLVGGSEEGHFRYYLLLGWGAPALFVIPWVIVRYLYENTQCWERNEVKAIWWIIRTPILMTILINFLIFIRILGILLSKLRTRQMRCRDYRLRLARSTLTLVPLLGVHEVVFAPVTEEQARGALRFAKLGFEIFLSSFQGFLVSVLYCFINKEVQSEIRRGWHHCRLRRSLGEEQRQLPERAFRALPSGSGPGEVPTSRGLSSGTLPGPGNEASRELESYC


Columns and labels:
Assay in all cases: cell-based or functional assay
[1] = target: hGLP-1R (Homo sapiens, UniProt P43220)
Chain of hGLP-1R (P43220 24-463): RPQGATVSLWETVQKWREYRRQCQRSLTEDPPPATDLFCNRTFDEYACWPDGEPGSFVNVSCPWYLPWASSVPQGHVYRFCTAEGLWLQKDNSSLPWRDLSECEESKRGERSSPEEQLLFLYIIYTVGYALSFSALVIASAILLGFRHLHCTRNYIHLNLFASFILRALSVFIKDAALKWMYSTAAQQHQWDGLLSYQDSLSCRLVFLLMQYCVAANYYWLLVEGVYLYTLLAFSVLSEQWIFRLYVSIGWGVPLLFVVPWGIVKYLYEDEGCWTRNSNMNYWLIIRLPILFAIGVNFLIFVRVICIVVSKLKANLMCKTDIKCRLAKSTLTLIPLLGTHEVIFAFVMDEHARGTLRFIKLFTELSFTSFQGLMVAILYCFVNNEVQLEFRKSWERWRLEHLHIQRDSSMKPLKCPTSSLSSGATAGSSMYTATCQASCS

[2] = target: T1, human GIP receptor (human)
[3] = target: human glucagon receptor (human) (UniProt P47871)
Chain of human glucagon receptor (human) (P47871 26-477): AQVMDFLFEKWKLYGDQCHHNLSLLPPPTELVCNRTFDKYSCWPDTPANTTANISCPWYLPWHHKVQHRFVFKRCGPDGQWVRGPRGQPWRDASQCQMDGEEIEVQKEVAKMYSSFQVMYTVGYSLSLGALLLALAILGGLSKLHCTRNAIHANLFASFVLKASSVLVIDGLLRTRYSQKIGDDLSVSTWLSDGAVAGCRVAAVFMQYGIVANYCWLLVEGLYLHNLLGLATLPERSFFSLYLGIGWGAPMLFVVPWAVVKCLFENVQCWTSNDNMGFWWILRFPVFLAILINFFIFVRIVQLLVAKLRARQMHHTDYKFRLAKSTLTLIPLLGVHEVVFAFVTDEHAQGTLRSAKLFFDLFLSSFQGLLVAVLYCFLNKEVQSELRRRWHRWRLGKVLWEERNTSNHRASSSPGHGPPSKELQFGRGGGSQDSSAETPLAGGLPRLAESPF

| Binder | Relative cAMP EC50 [1] | cAMP Rel EC50, nM (in the presence of 1% HSA) [1] | Relative cAMP EC50 [2] | cAMP Rel EC50, nM (in the presence of 1% HSA) [2] | Relative cAMP EC50 [3] | cAMP Rel EC50, nM (in the presence of 1% HSA) [3] | cAMP Rel EC50, nM (1% HSA) [1] | cAMP Rel EC50, nM (1% HSA) [2] | cAMP Rel EC50, nM (1% HSA) [3] | cAMP Rel EC50 (1% HSA) [1] | cAMP Rel EC50 (1% HSA) [2] | cAMP Rel EC50 (1% HSA) [3] |
| --- | --- | --- | --- | --- | --- | --- | --- | --- | --- | --- | --- | --- |
| YXQGTFTSDFSXXLDKKAQXAFIEYLLEAGPSSGAPPPSEG (not fully specified; synthetic construct; SITE 2: note = 2-Aminoisobutyric Acid; SITE 12: note = L-ornithine; SITE 13: note = alpha-methyl-leucine; SITE 17: note = Lysine is chemically modified through conjugation of the epsilon-amino group of the Lysine side chain with (2-[2-(2-Amino-ethoxy)-ethoxy]-acetyl)2-(gamma-Glu)) [Example 72] | 1.86 nM | 683 nM | 0.202 nM | 56.7 nM | 5.48 nM | 1910 nM |  |  |  |  |  |  |
| YXQGTFTSDFSXXLDKKAQXAFIEYLLEGGPSSGXPPPGGS (not fully specified; synthetic construct; SITE 2: note = 2-Aminoisobutyric Acid; SITE 12: note = L-ornithine; SITE 13: note = alpha-methyl-leucine; SITE 17: note = Lysine is chemically modified through conjugation of the epsilon-amino group of the Lysine side chain with (gamma-Glu)2-CO-(CH2)16-CO2H; SITE 20: note = 2-Am) [Example 771] | 4.38 nM |  | 0.232 nM |  | 5.05 nM |  | 665 nM | 44.2 nM | 955 nM |  |  |  |
| YXQGTFTSDFSXXLDKKAQXAFIEYLLEGGPSSXAPPPGGS (not fully specified; synthetic construct; SITE 2: note = 2-Aminoisobutyric Acid; SITE 12: note = L-ornithine; SITE 13: note = alpha-methyl-leucine; SITE 17: note = Lysine is chemically modified through conjugation of the epsilon-amino group of the Lysine side chain with (gamma-Glu)2-CO-(CH2)16-CO2H; SITE 20: note = 2-Am) [Example 770] | 3.91 nM |  | 0.244 nM |  | 5.37 nM |  | 240 nM | 18.2 nM | 390 nM |  |  |  |
| YXQGTXTSDXXIXLDXKAQXEFIEXLVEGGPSSGAPPPSGE (synthetic construct; SITE 2: note = 2-Aminoisobutyric Acid; SITE 6: note = alpha-methyl-2-fluoro-L-phenylalanine; SITE 10: note = 3-(4-Pyridyl)-L-alanine; SITE 11: note = alpha-methyl-L-serine; SITE 13: note = alpha-methyl-leucine; SITE 16: note = L-ornithine; SITE 17: note = Lysine is chemically mo) [Example 749] | 0.293 nM |  | 0.00718 nM |  | 2.21 nM |  | 33.9 nM | 1.47 nM | 28 nM |  |  |  |
| YXQGTXTSDXXIXLDXKYQXEFIEXLVEGGPSSGAPPPSGS (synthetic construct; SITE 2: note = 2-Aminoisobutyric Acid; SITE 6: note = alpha-methyl-2-fluoro-L-phenylalanine; SITE 10: note = 3-(4-Pyridyl)-L-alanine; SITE 11: note = alpha-methyl-L-serine; SITE 13: note = alpha-methyl-leucine; SITE 16: note = L-ornithine; SITE 17: note = Lysine is chemically mo) [Example 767] | 0.299 nM |  | 0.00792 nM |  | 1.13 nM |  | 56.8 nM | 1.51 nM | 207 nM |  |  |  |
| YXQGTXTSDXXIXLEXKAQXEFIEXLVEGGPSSGAPPPSGS (synthetic construct; SITE 2: note = 2-Aminoisobutyric Acid; SITE 6: note = alpha-methyl-2-fluoro-L-phenylalanine; SITE 10: note = 3-(4-Pyridyl)-L-alanine; SITE 11: note = alpha-methyl-L-serine; SITE 13: note = alpha-methyl-leucine; SITE 16: note = L-ornithine; SITE 17: note = Lysine is chemically mo) [Example 768] | 0.259 nM |  | 0.0294 nM |  | 10.3 nM |  | 33.2 nM | 2.65 nM | 2270 nM |  |  |  |
| YXQGTXTSDXXIXLDXKAQXEFIEXLVEGGPSSGEPPPSGE (synthetic construct; SITE 2: note = 2-Aminoisobutyric Acid; SITE 6: note = alpha-methyl-2-fluoro-L-phenylalanine; SITE 10: note = 3-(4-Pyridyl)-L-alanine; SITE 11: note = alpha-methyl-L-serine; SITE 13: note = alpha-methyl-leucine; SITE 16: note = L-ornithine; SITE 17: note = Lysine is chemically mo) [Example 750] | 0.302 nM |  | 0.00784 nM |  | 2 nM |  | 39.1 nM | 1.34 nM | 205 nM |  |  |  |
| YXQGTXTSDXXIXLDXKAQXEFIEXLVEGGPSSGAPPPSGSE (synthetic construct; SITE 2: note = 2-Aminoisobutyric Acid; SITE 6: note = alpha-methyl-2-fluoro-L-phenylalanine; SITE 10: note = 3-(4-Pyridyl)-L-alanine; SITE 11: note = alpha-methyl-L-serine; SITE 13: note = alpha-methyl-leucine; SITE 16: note = L-ornithine; SITE 17: note = Lysine is chemically mo) [Example 751] | 0.302 nM |  | 0.00759 nM |  | 1.9 nM |  | 32.3 nM | 1.27 nM | 267 nM |  |  |  |
| YXQGTXTSDXXIXLDXKAQXEFIEXLVEGGPSSGEPPPSGSE (synthetic construct; SITE 2: note = 2-Aminoisobutyric Acid; SITE 6: note = alpha-methyl-2-fluoro-L-phenylalanine; SITE 10: note = 3-(4-Pyridyl)-L-alanine; SITE 11: note = alpha-methyl-L-serine; SITE 13: note = alpha-methyl-leucine; SITE 16: note = L-ornithine; SITE 17: note = Lysine is chemically mo) [Example 752] | 0.274 nM |  | 0.00689 nM |  | 1.9 nM |  | 44 nM | 1.74 nM | 228 nM |  |  |  |
| YXQGTXTSDXXIXLDXKAAXEFIEXLIEGGPSSGAPPPSGTGX (synthetic construct; SITE 2: note = 2-Aminoisobutyric Acid; SITE 6: note = alpha-methyl-2-fluoro-L-phenylalanine; SITE 10: note = 3-(4-Pyridyl)-L-alanine; SITE 11: note = alpha-methyl-L-serine; SITE 13: note = alpha-methyl-leucine; SITE 16: note = L-ornithine; SITE 17: note = Lysine is chemically mo) [Example 724] | 0.256 nM |  | 0.0102 nM |  | 1.74 nM |  |  |  |  | 26.4 nM | 1.06 nM | 209 nM |
| YXQGTXTSDXXIXLDXKAQXEFIEXLIEGGPSSGEPPPEGTGE (synthetic construct; SITE 2: note = 2-Aminoisobutyric Acid; SITE 6: note = alpha-methyl-2-fluoro-L-phenylalanine; SITE 10: note = 3-(4-Pyridyl)-L-alanine; SITE 11: note = alpha-methyl-L-serine; SITE 13: note = alpha-methyl-leucine; SITE 16: note = L-ornithine; SITE 17: note = Lysine is chemically mo) [Example 763] | 0.302 nM |  | 0.00719 nM |  | 1.57 nM |  | 42.5 nM | 1.16 nM | 222 nM |  |  |  |
| YXQGTXTSDXXIXLDXKAAXEFIEXLIEGGPSSGEPPPSGGGE (synthetic construct; SITE 2: note = 2-Aminoisobutyric Acid; SITE 6: note = alpha-methyl-2-fluoro-L-phenylalanine; SITE 10: note = 3-(4-Pyridyl)-L-alanine; SITE 11: note = alpha-methyl-L-serine; SITE 13: note = alpha-methyl-leucine; SITE 16: note = L-ornithine; SITE 17: note = Lysine is chemically mo) [Example 746] | 0.261 nM |  | 0.0119 nM |  | 1.62 nM |  |  |  |  | 38.6 nM | 1.44 nM | 255 nM |
| YXQGTXTSDXXIXLDXKAAXEFIEXLIEGGPSSGAPPPSGTEX (synthetic construct; SITE 2: note = 2-Aminoisobutyric Acid; SITE 6: note = alpha-methyl-2-fluoro-L-phenylalanine; SITE 10: note = 3-(4-Pyridyl)-L-alanine; SITE 11: note = alpha-methyl-L-serine; SITE 13: note = alpha-methyl-leucine; SITE 16: note = L-ornithine; SITE 17: note = Lysine is chemically mo) [Example 726] | 0.247 nM |  | 0.013 nM |  | 1.71 nM |  |  |  |  | 33.3 nM | 1.22 nM | 226 nM |
| YXQGTXTSDXXIXLDXKAAXEFIEXLIEGGPSSGEPPPSGGGE (synthetic construct; SITE 2: note = 2-Aminoisobutyric Acid; SITE 6: note = alpha-methyl-2-fluoro-L-phenylalanine; SITE 10: note = 3-(4-Pyridyl)-L-alanine; SITE 11: note = alpha-methyl-L-serine; SITE 13: note = alpha-methyl-leucine; SITE 16: note = L-ornithine; SITE 17: note = Lysine is chemically mo) [Example 748] | 0.258 nM |  | 0.0105 nM |  | 1.42 nM |  | 22.9 nM | 0.865 nM | 156 nM |  |  |  |
| YXQGTXTSDXXIXLDXKAAXEFIEXLIEGGPSSGAPPPSGTEE (synthetic construct; SITE 2: note = 2-Aminoisobutyric Acid; SITE 6: note = alpha-methyl-2-fluoro-L-phenylalanine; SITE 10: note = 3-(4-Pyridyl)-L-alanine; SITE 11: note = alpha-methyl-L-serine; SITE 13: note = alpha-methyl-leucine; SITE 16: note = L-ornithine; SITE 17: note = Lysine is chemically mo) [Example 725] | 0.258 nM |  | 0.0126 nM |  | 1.49 nM |  |  |  |  | 29.1 nM | 1.39 nM | 244 nM |
| YXQGTXTSDXXIXLDXKAAXEFIEXLIEGGPSSGAPPPSGGGE (synthetic construct; SITE 2: note = 2-Aminoisobutyric Acid; SITE 6: note = alpha-methyl-2-fluoro-L-phenylalanine; SITE 10: note = 3-(4-Pyridyl)-L-alanine; SITE 11: note = alpha-methyl-L-serine; SITE 13: note = alpha-methyl-leucine; SITE 16: note = L-ornithine; SITE 17: note = Lysine is chemically mo) [Example 745] | 0.212 nM |  | 0.012 nM |  | 1.86 nM |  |  |  |  | 29 nM | 1.36 nM | 266 nM |
| YXQGTXTSDXXIXLDXKAAXEFIEXLIEGGPSSGAPPPSGGGE (synthetic construct; SITE 2: note = 2-Aminoisobutyric Acid; SITE 6: note = alpha-methyl-2-fluoro-L-phenylalanine; SITE 10: note = 3-(4-Pyridyl)-L-alanine; SITE 11: note = alpha-methyl-L-serine; SITE 13: note = alpha-methyl-leucine; SITE 16: note = L-ornithine; SITE 17: note = Lysine is chemically mo) [Example 747] | 0.229 nM |  | 0.00955 nM |  | 1.71 nM |  | 20.3 nM | 0.651 nM | 169 nM |  |  |  |

From US20240270821A1, “GIP/GLP1/GCG TRI-RECEPTOR AGONISTS AND USES THEREOF” (priority 2023, published 2024)
